# Molecular target: Human CaM (calmodulin) (human, UniProt P0DP23 1-149)
# Assay: cell-based or functional assay
row,"inhibition of eNOS L-citrulline formation (100 nM eNOS, 0.5 uM CaM) by 10 uM peptide",Binder
1,87%,"TRKKTFKEVANAVKISASLM [Unmodified CBD peptide, T495 (heNOS CaM-binding domain, residues 491-510)]"
2,70%,"TRKKAFKEVANAVKISASLM [Phospho-null CBD peptide, A495 (heNOS residues 491-510)]"
3,20%,"TRKKDFKEVANAVKISASLM [Phosphomimetic CBD peptide, D495 (heNOS residues 491-510)]"
